Consider three molecules from paper doi:10.1101/2023.03.23.533938 (bioRxiv, 2023).

First the molecules themselves.
B3: Rad51 (natural protein)
chain: MADTEVEMQVSAADTNNNENGQAQSNYEYDVNVQDEEDEAAAGPMPLQMLEGNGITASDIKKIHEAGYYTVESIAYTPKRQLLLIKGISEAKADKLLGEASKLVPMGFTTATEYHIRRSELITITTGSKQLDTLLQGGVETGSITELFGEFRTGKSQICHTLAVTCQLPIDMGGGEGKCLYIDTEGTFRPVRLLAVADRYGLNGEEVLDNVAYARAYNADHQLELLQQAANMMSESRFSLLVVDSCTALYRTDFSGRGELSARQMHLARFMRTLQRLADEFGIAVVITNQVVAQVDGISFNPDPKKPIGGNILAHSSTTRLSLRKGRGEQRICKIYDSPCLPESEAIFAINSDGVGDPKEIIAPV

One assay concerns the target T1, Sfr1, wild type (S. pombe, UniProt Q9USV1 1-299).
T1 sequence: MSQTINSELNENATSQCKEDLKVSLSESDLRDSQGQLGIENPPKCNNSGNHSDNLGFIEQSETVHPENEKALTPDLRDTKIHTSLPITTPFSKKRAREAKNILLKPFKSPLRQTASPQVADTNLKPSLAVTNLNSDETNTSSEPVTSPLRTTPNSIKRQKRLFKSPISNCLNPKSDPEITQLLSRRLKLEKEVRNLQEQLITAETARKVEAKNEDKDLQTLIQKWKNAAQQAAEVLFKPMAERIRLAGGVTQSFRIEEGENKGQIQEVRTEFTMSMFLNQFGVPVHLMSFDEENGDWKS
Description: SEC. Background: Size exclusion chromatography separates by hydrodynamic size, large species first.

The assay “Rad51” addresses B3. The experiment in a line: pull-down.
For assay [1], the target named is T2, Swi5-Sfr1 complex, wild type (S. pombe, UniProt Q9USV1;Q9UUB7).
T2 sequence 1: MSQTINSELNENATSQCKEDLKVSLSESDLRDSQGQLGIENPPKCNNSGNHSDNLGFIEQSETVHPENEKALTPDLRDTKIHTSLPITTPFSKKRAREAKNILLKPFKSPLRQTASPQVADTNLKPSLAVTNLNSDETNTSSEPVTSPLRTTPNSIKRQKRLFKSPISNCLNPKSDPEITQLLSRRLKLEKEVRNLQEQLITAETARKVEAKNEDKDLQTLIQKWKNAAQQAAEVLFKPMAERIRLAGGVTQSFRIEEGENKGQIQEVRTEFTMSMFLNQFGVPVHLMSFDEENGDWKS
T2 sequence 2: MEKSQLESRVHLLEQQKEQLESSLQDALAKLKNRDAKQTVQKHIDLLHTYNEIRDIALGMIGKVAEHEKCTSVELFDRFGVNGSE
The experiment in a line: pull-down.

B1: Swi5 (natural protein)
chain: MEKSQLESRVHLLEQQKEQLESSLQDALAKLKNRDAKQTVQKHIDLLHTYNEIRDIALGMIGKVAEHEKCTSVELFDRFGVNGSE
On to B1, for which the binding result with Sfr1, wild type was “binds”.

B2: Swi5-Sfr1 phosphomimetic mutant complex (complex)
chain 1: MSQTINSELNENATSQCKEDLKVDLSESDLRDSQGQLGIENPPKCNNSGNHSDNLGFIEQSETVHPENEKALDPDLRDTKIHTSLPITTPFSKKRAREAKNILLKPFKDPLRQTADPQVADTNLKPSLAVTNLNSDETNTSSEPVTSPLRTTPNSIKRQKRLFKDPISNCLNPKSDPEITQLLSRRLKLEKEVRNLQEQLITAETARKVEAKNEDKDLQTLIQKWKNAAQQAAEVLFKPMAERIRLAGGVTQSFRIEEGENKGQIQEVRTEFTMSMFLNQFGVPVHLMSFDEENGDWKS
chain 2: MEKSQLESRVHLLEQQKEQLESSLQDALAKLKNRDAKQTVQKHIDLLHTYNEIRDIALGMIGKVAEHEKCTSVELFDRFGVNGSE
Take B2: in the assay with Rad51, the “fold reduction in co-precipitation with Rad51 against wild type” value is roughly 5 fold.

Regarding B3, the binding result in assay [1] is “binds”.
